# Measured values as given in publication PMC10546719.
# Columns and labels:
# [1] = target: syndecan-1 (human (endogenous in Caco-2)) (UniProt P18827)
# [2] = target: syndecan-1 (human (endogenous in Caco-2)) (UniProt P18827); remark: listed apart in the source
# Sequence of UniProt P18827 (P18827 23-310): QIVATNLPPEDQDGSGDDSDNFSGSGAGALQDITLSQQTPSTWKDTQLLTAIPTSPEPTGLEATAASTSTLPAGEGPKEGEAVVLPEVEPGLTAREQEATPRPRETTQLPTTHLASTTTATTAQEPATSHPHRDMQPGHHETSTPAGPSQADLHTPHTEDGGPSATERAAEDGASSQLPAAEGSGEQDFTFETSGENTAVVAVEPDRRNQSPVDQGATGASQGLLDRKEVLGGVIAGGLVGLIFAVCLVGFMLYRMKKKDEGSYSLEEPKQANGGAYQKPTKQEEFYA
substance,measurement,setting,value
recombinant Trichinella spiralis C-type lectin with GST tag (GST-rTsCTL) (natural protein),reduction of the rTsCTL (10 µg/mL) promotion of larval invasion of Caco-2 cells by 2.5-20 mM β-xyloside,[1],46.8%
same,inhibition of the rTsCTL (10 µg/mL) promotion of larval invasion of Caco-2 cells by 2.5-20 µM Stattic,[2],49.3%
